From patent US20210269549A1, “ANTI-SAS1B ANTIBODIES, ASSOCIATED METHODS OF USE, AND COMPOSITIONS AND METHODS FOR DETECTING AND TREATING CANCER” (UNIVERSITY OF VIRGINIA PATENT FOUNDATION, priority 2015, published 2021)
“And” between values parts separate entries of the source, which are not always exact repeats. Equal values may be shown once. “Also recorded” adds a separate entry of the source.

T1: human SAS1B protein with a C-terminal V5 tag expressed by HEK293T cells (Homo sapiens, UniProt Q6HA08)
T1 construct: expressed in transfected cells; host or cells: HEK293T
T1 sequence (Q6HA08 24-431): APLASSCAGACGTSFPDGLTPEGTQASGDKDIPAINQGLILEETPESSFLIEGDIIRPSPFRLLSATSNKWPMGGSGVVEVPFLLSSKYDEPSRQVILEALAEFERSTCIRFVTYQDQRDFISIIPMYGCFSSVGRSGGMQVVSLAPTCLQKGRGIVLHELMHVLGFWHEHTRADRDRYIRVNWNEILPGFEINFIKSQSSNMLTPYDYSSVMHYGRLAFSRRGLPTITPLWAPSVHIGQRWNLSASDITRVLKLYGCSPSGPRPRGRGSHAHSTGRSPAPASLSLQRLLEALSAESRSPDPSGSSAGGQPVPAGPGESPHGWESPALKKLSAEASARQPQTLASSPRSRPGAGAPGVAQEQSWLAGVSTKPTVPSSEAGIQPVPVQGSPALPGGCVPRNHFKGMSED

T2: human SAS1B (Homo sapiens, UniProt Q6HA08)
T2 construct: made in house; host or cells: E. coli
T2 sequence (Q6HA08 24-431): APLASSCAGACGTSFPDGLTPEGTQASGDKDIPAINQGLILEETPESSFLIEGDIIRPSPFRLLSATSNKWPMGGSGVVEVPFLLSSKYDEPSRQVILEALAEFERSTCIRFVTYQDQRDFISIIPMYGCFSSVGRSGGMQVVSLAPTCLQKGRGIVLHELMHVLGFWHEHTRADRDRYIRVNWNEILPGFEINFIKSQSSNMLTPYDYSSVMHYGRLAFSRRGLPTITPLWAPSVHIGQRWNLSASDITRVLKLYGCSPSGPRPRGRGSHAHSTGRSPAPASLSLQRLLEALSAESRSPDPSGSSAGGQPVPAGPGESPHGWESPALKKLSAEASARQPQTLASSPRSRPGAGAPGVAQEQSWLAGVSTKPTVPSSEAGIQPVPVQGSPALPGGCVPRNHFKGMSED

T3: full-length SAS1B splice variant A polypeptide (Homo sapiens, UniProt Q6HA08)
T3 construct: made in house
T3 sequence (Q6HA08 24-431): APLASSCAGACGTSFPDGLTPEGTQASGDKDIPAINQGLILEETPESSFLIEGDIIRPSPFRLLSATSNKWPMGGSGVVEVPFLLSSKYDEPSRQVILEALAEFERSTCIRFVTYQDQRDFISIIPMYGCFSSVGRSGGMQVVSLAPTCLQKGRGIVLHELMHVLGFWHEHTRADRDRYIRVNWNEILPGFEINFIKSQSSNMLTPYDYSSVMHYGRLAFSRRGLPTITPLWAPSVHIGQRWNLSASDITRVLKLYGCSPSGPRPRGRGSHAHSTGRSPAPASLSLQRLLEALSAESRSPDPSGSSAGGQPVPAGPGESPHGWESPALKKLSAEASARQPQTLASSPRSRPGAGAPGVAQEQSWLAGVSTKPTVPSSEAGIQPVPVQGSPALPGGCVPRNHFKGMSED


Tests used:
[1] = target: T1, human SAS1B protein with a C-terminal V5 tag expressed by HEK293T cells; test: Double immunofluorescence on fixed and permeabilized HEK293T cells transfected with SAS1B SV-A with V5 tag; assay type: cell-based; conditions: for IF signal / colocalization with V5-tag epitope signal: SV-A transfected HEK293T, PFA fixed, methanol permeabilized, mAbs at 10 ug/ml
Procedure: Experiments were conducted to determine the specificity of anti-human SAS1B monoclonal antibodies SB1, SB2, SB3, SB4, SB5, SB6 and SB7 against the human SAS1B protein with a C-terminal V5 tag expressed by HEK293T cells by double immuno-fluorescence from two different SAS1B epitopes. HEK293T cells were seeded at ˜100,000 per well of a 24 well plate containing a lysine-coated 12 mm coverslip. 24 hours later, the cells were transfected with 1 ug of SV-A plasmid with 2 ul of TURBOFECT® transfection reagent followed by no change of media. 48 h later the cells were PFA (paraformaldehyde) fixed and methanol permeabilized for an IF study as follows.
The cells were removed from cell culture media and fixed in 4% PFA in PBS, 300 ul for 15 min. The cells were washed in 1 ml PBS in wells for 3 times and permeabilized in methanol (100%) for 15 min in 0.5 ml at RT. The cells were washed in PBS 1 ml for 3 times and blocked in complete culture media (DMEM) with 5% normal goat serum (NGS) for 30 min (i.e. BB, blocking buffer). The first antibody in BB was added for 1 h at 10 ug/ml for mouse monoclonal antibodies (SB1, SB2, SB3, SB4, SB5, SB6, SB7) and 5 ug/ml for anti-V5 DYLIGHT® 488 (green) rabbit (a rabbit polyclonal antibody to V5 tag). The cells were washed in PBS 3 times. The second antibody in BB (Goat anti-mouse Alexa Flour 594, red) was added for 1 h at 5 ug/ml (1:200 dilution). The cells were washed in PBS 3 times. The cells were mounted in slow fade DAPI 3 ul and stored at 4° C. before confocal imaging.

[2] = test system: MMMT539 (uterine cancer cell line); test: Live cell surface indirect immunofluorescence, MMMT539; assay type: cell-based, human; conditions: live cells on ice
Procedure: Anti-Human SAS1B mouse monoclonal antibodies reactive to SAS1B epitope on live cancer cell surfaces were identified by indirect immuno-fluorescence (IF) for the development of therapeutic antibodies. M1 (renal cancer cell line) and MMMT539 (uterine cancer cell line) cells were seeded at 20,000 cells in 1 ml per well on collagen coated coverslips in 24 well plates. The media was replaced 22 h post seeding. For antibody probing, cells were kept on ice for ˜8 to 18 min following 47 h post-seeding. The first antibody was added at 10 ug/ml, 20 ug/ml or 50 ug/ml in complete culture media with 15 mM NaN3 (pre-chilled), incubated on ice for 60 min, and the cells washed in complete culture media with 15 mM NaN3 in cold 1 ml, ×3. The second antibody, goat-antimouse-AF488 (pre-chilled), was added to the wells at 5 ug/ml in complete culture media with 15 mM NaN3 for 60 min on ice. The cells were washed in complete media with 15 mM NaN3, 1 ml, ×3 on ice. The cells were fixed in 4% PFA in PBS for 20 minutes on ice. The cells were washed in distilled water at RT, 1 ml, ×1 and mounted in 8 ul of SLOWFADE® Diamond Antifade Mountant with DAPI. An anti-EGFR monoclonal antibody was used as a positive control on live M1 cells. Epidermal growth factor receptor (EGFR) is a transmembrane glycoprotein and member of protein kinase superfamily. […] Most of the cells expressed the receptor and validated the live cell surface IF staining methodology for the screening of anti-human SAS1B mouse monoclonal antibodies. The receptor molecule was found on the cell surfaces. Anti-human CABYR monoclonal antibody 3A4 was used as a negative control on live MMMT539 cells. CABYR is a calcium binding cytoskeleton sperm protein with no transmembrane domain.

human SAS1B = target: T2, human SAS1B; test: Western blot of human SAS1B probed with anti-human SAS1B murine mAbs; assay type: binding; conditions: for Specifically binds human SAS1B (and not mouse SAS1B): Table 1
Excerpt: A western blot of human SAS1B and mouse SAS1B was probed with anti-human SAS1B murine monoclonal antibodies SB1, SB2, SB3, SB4, SB5, SB6, and SB7.

[3] = test system: human uterine cancer cells; test: ADC assay on human uterine cancer cells using Fab-anti-mouse IgG Fc (Duocarmycin DM conjugated or unconjugated); assay type: cell-based; conditions: for Cytotoxic effect / Viability: 4 days; for Cell killing effects as antibody-duocarmycin conjugates on SAS1B+ human tumor cells (FIG. 28): uterine tumor cells in vitro; for Viability: 0.01 nM mAb
Procedure: The cytotoxic effect of anti-human SAS1B monoclonal antibodies SB1, SB3 and SB4 on human uterine cancer cells was investigated by ADC assay using Fab-anti-mouse IgG Fc conjugated to Duocarmycin DM with a cleavable linker. An average of 3 experiments were done in triplicate. […] At 0.01 nM the viability was only 40% compared to ˜80% viability for SB4 mAb.
The cytotoxic effect of anti-human SAS1B mAbs SB1, SB2, SB3, SB4 and SB5 on human uterine cancer cells by ADC assay using unconjugated Fab-anti-mouse IgG Fc was examined. An average of 1 or 2 experiments in triplicate were performed. […] See FIGS. 10A-B. The cytotoxic effect of anti-human SAS1B mAbs SB1, SB2, SB3, SB4, and SB5 was tested on human uterine cancer cells by ADC assay using Fab-anti-mouse IgG Fc conjugated to Duocarmycin DM with cleavable linker. An average of 3 experiments were completed in triplicate. […] At 0.01 nM the viability for SB3, SB2, SB4 and SB5 were 42%, 66%, 80% and 87% respectively.

[4] = target: T3, full-length SAS1B splice variant A polypeptide; test: Western blot with mammalian cell-expressed recombinant SAS1B, full length; assay type: binding
Procedure: SAS1B monoclonal antibodies were analyzed with mammalian cell-expressed recombinant SAS1B by western blotting.

[5] = Fab-anti-mouse IgG Fc conjugated to Duocarmycin DM with cleavable linker
[6] = isotype-specific unconjugated Fab

Row | Molecule | Signal on mock transfected HEK293T cells [1] | Reactivity on western blot of human SAS1B and mouse SAS1B (human SAS1B) | Specificity in western blot for human SAS1B antigen in an E. coli protein background (human SAS1B) | Specifically binds human SAS1B (and not mouse SAS1B) (human SAS1B) | IF signal / colocalization with V5-tag epitope signal [1] | Fluorescence signal on the surface of live uterine tumor cells [2] | Cytotoxic effect [3, 5] | Cytotoxic effect [3, 6] | Cell killing effects as antibody-duocarmycin conjugates on SAS1B+ human tumor cells (FIG. 28) [3] | Reaction with full-length SAS1B splice variant A polypeptide [4] | Viability [3, 5]
1 | SB5: mouse anti-human SAS1B monoclonal antibody, IgG2b; VH SEQ ID NO:16, VL SEQ ID NO:18 (antibody, listed as Mus musculus, V domains shown) VH: EVQLQQSGPELVKPGSSVKISCKPSGYTFTDYNMVWMKQSHGKSLEWIGAINPNNGGTTYNQKFKGKATLTVDKSSSTAYMELRSLTSEDSAVYYCAPNWDWFAYWGQGTLVTVSA VL: DVLMTQIPLSLPVSLGDQASISCRSSQSILHSNGNTYLEWYLQKPGQSPKLLIYKVSNRFSGVPDRFSGSGSGTDFTLKISRVEAEDLGVYYCFQGSHVPFTFGSGTKLEIK | no V5 signal or SAS1B signal | specific to the human SAS1B only | demonstrated specificity | Yes | colocalize (merge) with V5-tag epitope signal | clear fluorescence signal | strong cytotoxic effect at 0.1 nM and higher concentrations | no cytotoxic effect | sub-nanomolar concentrations | reacted with the full-length SAS1B splice variant A polypeptide | –
2 | SB3: mouse anti-human SAS1B monoclonal antibody, IgG2b; VH SEQ ID NO:14, VL SEQ ID NO:15 (antibody, listed as Mus musculus, V domains shown) VH: EVQLQQSGPELVKPGSSVKISCKASGYTFTDYNMVWVKQSHGKSLEWIGAVNPNNGGTSYNQKFKGKATLTVDKSSSTAYMELRSLTSEDSAVYYCVPNWDWFAYWGQGTLVTVSA VL: DVLMTQTPLSLPVSLGDQASISCRSSQSLVHSNGNTYLEWYLQKPGQSPNLLIYKVSNRFSGVPDRFSGSGSGTDFTLKISRVEAEDLGVYYCFQGSHVPFTFGSGTKLEIK | no V5 signal or SAS1B signal | specific to the human SAS1B only | demonstrated specificity | Yes | colocalize (merge) with V5-tag epitope signal | clear fluorescence signal | strongest cytotoxic effect; also recorded: strong cytotoxic effect at 0.1 nM and higher concentrations | no cytotoxic effect | sub-nanomolar concentrations | reacted with the full-length SAS1B splice variant A polypeptide | 40% and 42%

Further lines, with some results ahead:

Row | Signal on mock transfected HEK293T cells [1] | Reactivity on western blot of human SAS1B and mouse SAS1B (human SAS1B) | Specificity in western blot for human SAS1B antigen in an E. coli protein background (human SAS1B) | Specifically binds human SAS1B (and not mouse SAS1B) (human SAS1B) | Molecule | IF signal / colocalization with V5-tag epitope signal [1] | Fluorescence signal on the surface of live uterine tumor cells [2] | Cytotoxic effect [3, 5] | Cytotoxic effect [3, 6] | Cell killing effects as antibody-duocarmycin conjugates on SAS1B+ human tumor cells (FIG. 28) [3] | Reaction with full-length SAS1B splice variant A polypeptide [4] | Viability [3, 5]
3 | no V5 signal or SAS1B signal | specific to the human SAS1B only | demonstrated specificity | Yes | SB2: mouse anti-human SAS1B monoclonal antibody, IgG2b; VH SEQ ID NO:14, VL SEQ ID NO:15 (antibody, listed as Mus musculus, V domains shown) VH: EVQLQQSGPELVKPGSSVKISCKASGYTFTDYNMVWVKQSHGKSLEWIGAVNPNNGGTSYNQKFKGKATLTVDKSSSTAYMELRSLTSEDSAVYYCVPNWDWFAYWGQGTLVTVSA VL: DVLMTQTPLSLPVSLGDQASISCRSSQSLVHSNGNTYLEWYLQKPGQSPNLLIYKVSNRFSGVPDRFSGSGSGTDFTLKISRVEAEDLGVYYCFQGSHVPFTFGSGTKLEIK | colocalize (merge) with V5-tag epitope signal | clear fluorescence signal | strong cytotoxic effect at 0.1 nM and higher concentrations | no cytotoxic effect | sub-nanomolar concentrations | reacted with the full-length SAS1B splice variant A polypeptide | –
4 | no V5 signal or SAS1B signal | specific to the human SAS1B only | demonstrated specificity | Yes | SB4: mouse anti-human SAS1B monoclonal antibody, IgG2a; VH SEQ ID NO:16, VL SEQ ID NO:17 (antibody, listed as Mus musculus, V domains shown) VH: EVQLQQSGPELVKPGSSVKISCKPSGYTFTDYNMVWMKQSHGKSLEWIGAINPNNGGTTYNQKFKGKATLTVDKSSSTAYMELRSLTSEDSAVYYCAPNWDWFAYWGQGTLVTVSA VL: DVLMTQTPLSLPVSLGDQASISCRSSQSILHSNGNTYLEWYLQKPGQSPKLLIYKVSNRFSGVPDRFSGSGSGTDFTLKISRVEAEDLGVYYCFQGSHVPFTFGSGTKLEIK | colocalize (merge) with V5-tag epitope signal; also recorded: recognizing native SAS1B in fixed cells | clear fluorescence signal | cytotoxic effect at 0.01, 0.1 nM and higher concentrations; also recorded: strong cytotoxic effect at 0.1 nM and higher concentrations | no cytotoxic effect | sub-nanomolar concentrations | reacted with the full-length SAS1B splice variant A polypeptide | ~80%
